Measured values: patent US20140274782A1, “AFFINITY REAGENTS AND METHODS FOR DETECTION, PURIFICATION, AND PROTEOMIC ANALYSIS OF METHYLATED PROTEINS” (The Board of Trustees of the Leland Stanford Junior …, priority 2013, published 2014)

T1: G9a and GLP (Homo sapiens, UniProt Q96KQ7+Q9H9B1)
T1 sequence (Q96KQ7 2-1210 limits assumed): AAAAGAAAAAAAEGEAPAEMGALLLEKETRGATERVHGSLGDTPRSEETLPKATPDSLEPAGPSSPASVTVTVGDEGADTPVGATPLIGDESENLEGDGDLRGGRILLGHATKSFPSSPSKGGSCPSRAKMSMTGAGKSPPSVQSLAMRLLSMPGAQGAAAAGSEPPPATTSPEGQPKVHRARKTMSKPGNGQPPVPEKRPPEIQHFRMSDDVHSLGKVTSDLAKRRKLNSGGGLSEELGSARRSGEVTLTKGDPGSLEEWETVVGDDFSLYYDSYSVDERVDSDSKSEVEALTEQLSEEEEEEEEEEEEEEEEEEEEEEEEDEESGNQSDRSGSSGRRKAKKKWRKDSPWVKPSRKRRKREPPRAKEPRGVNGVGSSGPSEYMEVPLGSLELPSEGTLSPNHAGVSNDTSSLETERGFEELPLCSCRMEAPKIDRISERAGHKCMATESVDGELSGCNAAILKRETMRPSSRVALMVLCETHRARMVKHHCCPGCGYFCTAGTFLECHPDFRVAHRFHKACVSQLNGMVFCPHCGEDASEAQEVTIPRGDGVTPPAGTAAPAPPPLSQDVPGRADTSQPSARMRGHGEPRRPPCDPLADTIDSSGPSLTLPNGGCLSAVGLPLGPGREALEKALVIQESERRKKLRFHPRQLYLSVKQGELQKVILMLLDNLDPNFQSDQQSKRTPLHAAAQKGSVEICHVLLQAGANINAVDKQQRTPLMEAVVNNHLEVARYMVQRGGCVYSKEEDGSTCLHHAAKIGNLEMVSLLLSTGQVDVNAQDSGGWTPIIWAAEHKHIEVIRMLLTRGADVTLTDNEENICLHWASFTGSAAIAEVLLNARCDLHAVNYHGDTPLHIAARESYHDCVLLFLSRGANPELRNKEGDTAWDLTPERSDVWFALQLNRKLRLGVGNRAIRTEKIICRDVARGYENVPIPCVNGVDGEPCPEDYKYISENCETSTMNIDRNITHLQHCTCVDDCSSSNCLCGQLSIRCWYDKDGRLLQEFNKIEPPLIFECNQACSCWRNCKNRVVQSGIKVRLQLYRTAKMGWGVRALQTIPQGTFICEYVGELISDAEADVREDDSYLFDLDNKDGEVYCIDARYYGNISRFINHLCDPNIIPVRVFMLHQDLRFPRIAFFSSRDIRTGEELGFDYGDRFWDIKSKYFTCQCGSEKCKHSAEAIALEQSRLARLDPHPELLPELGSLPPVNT
T1 sequence (Q9H9B1 2-1298 limits assumed): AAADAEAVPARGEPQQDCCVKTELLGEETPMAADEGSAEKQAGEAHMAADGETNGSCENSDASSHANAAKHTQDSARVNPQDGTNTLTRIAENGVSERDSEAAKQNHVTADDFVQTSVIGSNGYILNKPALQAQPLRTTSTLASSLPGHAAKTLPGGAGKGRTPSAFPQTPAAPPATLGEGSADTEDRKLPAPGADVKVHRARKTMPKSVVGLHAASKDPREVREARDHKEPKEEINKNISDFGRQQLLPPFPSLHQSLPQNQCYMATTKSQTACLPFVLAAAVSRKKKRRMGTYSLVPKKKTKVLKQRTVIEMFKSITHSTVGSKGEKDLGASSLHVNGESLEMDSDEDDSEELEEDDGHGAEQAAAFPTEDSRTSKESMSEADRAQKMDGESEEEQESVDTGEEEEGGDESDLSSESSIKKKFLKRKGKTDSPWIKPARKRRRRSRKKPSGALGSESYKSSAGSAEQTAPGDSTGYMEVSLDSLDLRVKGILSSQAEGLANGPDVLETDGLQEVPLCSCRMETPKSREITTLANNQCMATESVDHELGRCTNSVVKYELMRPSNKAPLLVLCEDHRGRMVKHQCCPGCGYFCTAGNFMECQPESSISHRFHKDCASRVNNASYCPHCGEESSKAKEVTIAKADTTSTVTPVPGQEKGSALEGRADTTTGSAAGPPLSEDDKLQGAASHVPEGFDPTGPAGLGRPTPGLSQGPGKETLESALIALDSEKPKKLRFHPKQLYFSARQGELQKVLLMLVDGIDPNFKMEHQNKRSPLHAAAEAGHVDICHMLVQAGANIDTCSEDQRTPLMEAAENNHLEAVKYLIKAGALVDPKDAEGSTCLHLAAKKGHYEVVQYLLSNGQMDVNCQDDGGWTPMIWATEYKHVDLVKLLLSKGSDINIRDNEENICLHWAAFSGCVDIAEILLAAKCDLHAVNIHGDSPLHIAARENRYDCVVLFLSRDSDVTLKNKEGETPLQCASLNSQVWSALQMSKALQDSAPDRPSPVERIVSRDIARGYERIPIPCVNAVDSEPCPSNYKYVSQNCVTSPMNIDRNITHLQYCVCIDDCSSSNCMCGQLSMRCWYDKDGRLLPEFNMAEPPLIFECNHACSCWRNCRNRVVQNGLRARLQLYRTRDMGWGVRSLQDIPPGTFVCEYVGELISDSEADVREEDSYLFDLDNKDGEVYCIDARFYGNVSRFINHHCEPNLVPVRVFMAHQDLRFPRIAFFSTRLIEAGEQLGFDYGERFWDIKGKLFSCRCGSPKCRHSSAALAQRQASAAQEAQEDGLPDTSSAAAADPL


Key:
G9a and GLP = molecular target: T1, G9a and GLP; test: Triple SILAC pull-down after UNC0638 treatment of 293T cells, DMSO/UNC0638 ratio of protein captured by 3×MBT; assay type: cell-based; design: endogenous in cells; host or cells: HEK 293T; settings: for Relative to UNC0638 UNC Heavy / Relative to UNC0638 UNC Light: SILAC ratio DMSO/UNC0638 of protein pulled down with 3xMBT; for Relative to UNC0638 UNC Heavy: UNC0638 in heavy SILAC media; for Relative to UNC0638 UNC Light: UNC0638 in light SILAC media; for Relative to UNC0638 Average: average of UNC Light and UNC Heavy experiments; for Candidate G9a/GLP target: reduced association with 3xMBT after UNC0638 treatment;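 on all read-outs here: mass spectrometry (Q-Exactive) SILAC quantitation, DMSO/UNC0638 ratio computed after subtracting 3×MBTD355N mutant pull-down background, only proteins with at least twofold 3×MBT over mutant signal considered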
3×MBT domain of L3MBTL1 = test: Triple SILAC pull-down, 3xMBT/3xMBTD355N ratio (cytoplasmic, nuclear and chromatin fractions of 293T cells); assay type: binding, human; settings: SILAC ratio, pull-down 3xMBT vs 3xMBTD355N; for 3xMBT/D355N UNC Heavy: experiment with UNC0638 in heavy SILAC media; for 3xMBT/D355N UNC Light: experiment with UNC0638 in light SILAC media;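 on all read-outs here: proteins quantified with MaxQuant, requiring at least two unique peptides and quantification in both label directions, normalized to the mean of proteins from a digested loading control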

Molecule	Relative to UNC0638 UNC Heavy (G9a and GLP) [log base 2]	Relative to UNC0638 UNC Light (G9a and GLP) [log base 2]	Relative to UNC0638 Average (G9a and GLP) [log base 2]	Candidate G9a/GLP target (G9a and GLP)	3xMBT/D355N UNC Heavy (3×MBT domain of L3MBTL1) [log base 2]	3xMBT/D355N UNC Light (3×MBT domain of L3MBTL1) [log base 2]
API5 (protein, UniProt Q9BZZ5 2-524, looked up) Apoptosis inhibitor 5: PTVEELYRNYGILADATEQVGQHKDAYQVILDGVKGGTKEKRLAAQFIPKFFKHFPELADSAINAQLDLCEDEDVSIRRQAIKELPQFATGENLPRVADILTQLLQTDDSAEFNLVNNALLSIFKMDAKGTLGGLFSQILQGEDIVRERAIKFLSTKLKTLPDEVLTKEVEELILTESKKVLEDVTGEEFVLFMKILSGLKSLQTVSGRQQLVELVAEQADLEQTFNPSDPDCVDRLLQCTRQAVPLFSKNVHSTRFVTYFCEQVLPNLGTLTTPVEGLDIQLEVLKLLAEMSSFCGDMEKLETNLRKLFDKLLEYMPLPPEEAENGENAGNEEPKLQFSYVECLLYSFHQLGRKLPDFLTAKLNAEKLKDFKIRLQYFARGLQVYIRQLRLALQGKTGEALKTEENKIKVVALKITNNINVLIKDLFHIPPSYKSTVTLSWKPVQKVEIGQKRASEDTTSGSPPKKSSAGPKRDARQIYNPPSGKYSSNLGNFNYEQRGAFRGSRGGRGWGTRGNRSRGRLY	1.12	0.31	0.71	✓	3.54	2.67
SRP19 (protein, UniProt P09132 1-144, looked up) Signal recognition particle …: MACAAARSPADQDRFICIYPAYLNNKKTIAEGRRIPISKAVENPTATEIQDVCSAVGLNVFLEKNKMYSREWNRDVQYRGRVRVQLKQEDGSLCLVQFPSRKSVMLYAAEMIPKLKTRTQKTGGADQSLQQGEGSKKGKGKKKK	−0.08	0.38	0.15		1.88	2.14
KIN (protein, UniProt O60870 1-393, looked up) DNA/RNA-binding protein KIN17: MGKSDFLTPKAIANRIKSKGLQKLRWYCQMCQKQCRDENGFKCHCMSESHQRQLLLASENPQQFMDYFSEEFRNDFLELLRRRFGTKRVHNNIVYNEYISHREHIHMNATQWETLTDFTKWLGREGLCKVDETPKGWYIQYIDRDPETIRRQLELEKKKKQDLDDEEKTAKFIEEQVRRGLEGKEQEVPTFTELSRENDEEKVTFNLSKGACSSSGATSSKSSTLGPSALKTIGSSASVKRKESSQSSTQSKEKKKKKSALDEIMEIEEEKKRTARTDYWLQPEIIVKIITKKLGEKYHKKKAIVKEVIDKYTAVVKMIDSGDKLKLDQTHLETVIPAPGKRILVLNGGYRGNEGTLESINEKTFSATIVIETGPLKGRRVEGIQYEDISKLA	0.35	−0.04	0.15		2.85	2.11
ZNF326 (protein, UniProt Q5BKZ1 1-582, looked up) DBIRD complex subunit ZNF326: MDFEDDYTHSACRNTYQGFNGMDRDYGPGSYGGMDRDYGHGSYGGQRSMDSYLNQSYGMDNHSGGGGGSRFGPYESYDSRSSLGGRDLYRSGYGFNEPEQSRFGGSYGGRFESSYRNSLDSFGGRNQGGSSWEAPYSRSKLRPGFMEDRGRENYSSYSSFSSPHMKPAPVGSRGRGTPAYPESTFGSRNYDAFGGPSTGRGRGRGHMGDFGSIHRPGIVVDYQNKSTNVTVAAARGIKRKMMQPFNKPSGTFIKKPKLAKPMEKISLSKSPTKTDPKNEEEEKRRIEARREKQRRRREKNSEKYGDGYRMAFTCSFCKFRTFEEKDIELHLESSSHQETLDHIQKQTKFDKVVMEFLHECMVNKFKKTSIRKQQTNNQTEVVKIIEKDVMEGVTVDDHMMKVETVHCSACSVYIPALHSSVQQHLKSPDHIKGKQAYKEQIKRESVLTATSILNNPIVKARYERFVKGENPFEIQDHSQDQQIEGDEEDEEKIDEPIEEEEDEDEEEEAEEVGEVEEVEEVEEVREGGIEGEGNIQGVGEGGEVGVVGEVEGVGEVEEVEELEEETAKEEPADFPVEQPEEN	−0.02	0.33	0.15		3.01	6.59
HNRNPA0 (protein, UniProt Q13151 1-305, looked up) Heterogeneous nuclear …: MENSQLCKLFIGGLNVQTSESGLRGHFEAFGTLTDCVVVVNPQTKRSRCFGFVTYSNVEEADAAMAASPHAVDGNTVELKRAVSREDSARPGAHAKVKKLFVGGLKGDVAEGDLIEHFSQFGTVEKAEIIADKQSGKKRGFGFVYFQNHDAADKAAVVKFHPIQGHRVEVKKAVPKEDIYSGGGGGGSRSSRGGRGGRGRGGGRDQNGLSKGGGGGYNSYGGYGGGGGGGYNAYGGGGGGSSYGGSDYGNGFGGFGSYSQHQSSYGPMKSGGGGGGGGSSWGGRSNSGPYRGGYGGGGGYGGSSF	0.02	0.28	0.15		2.94	3.80
HN1L (protein, UniProt Q9H910 1-190, looked up) Jupiter microtubule …: MFQVPDSEGGRAGSRAMKPPGGESSNLFGSPEEATPSSRPNRMASNIFGPTEEPQNIPKRTNPPGGKGSGIFDESTPVQTRQHLNPPGGKTSDIFGSPVTATSRLAHPNKPKDHVFLCEGEEPKSDLKAARSIPAGAEPGEKGSARKAGPAKEQEPMPTVDSHEPRLGPRPRSHNKVLNPPGGKSSISFY	0.17	1.22	0.70	✓	2.73	3.57
